Source: US11319368B2, “Treatment of hepatotoxicity with IL-11 antibody” (Singapore Health Services PTE LTD., priority 2019, dated 2022)
“Also recorded” adds a separate entry of the source.

How the values were obtained:
NOX4 = biological target: T1, NOX4 (Homo sapiens, UniProt Q9NPH5); test: NOX4 inhibitor in rhIL11-stimulated human hepatocytes; type: cell-based; conditions: rhIL11 10 ng ml^-1, 24 h
T1 construct: Human hepatocytes (5200, ScienCell) were maintained in hepatocyte medium; host or cells: primary human hepatocytes

human hepatocytes [1] = test: APAP-mediated activation of Erk and Jnk, western blot; type: cell-based; conditions: APAP 10 mM, 24 hours; X209 2 μg/ml
[2] = tested on: APAP overdose acute liver injury; test: Severe APAP overdose in mice, anti-IL11Rα antibody (X209) 16 h before; type: in vivo, mouse; conditions: 20 mg/kg IP 16 hours before APAP 400 mg/kg
[3] = tested on: APAP overdose acute liver injury; test: Severe APAP overdose in mice, X209 10 h after; type: in vivo, mouse
Protocol: Mice were euthanized at 24, 36 and 48 hours. Serum ALT levels were analysed as described in Example 4.
Livers were harvested, and fixed as described in Example 4, and digital photographs were taken.
Western blots were also performed on protein extracts prepared from the livers of the mice.

lethal APAP overdose = test: Lethal APAP overdose in mice, X209 10 h after; type: in vivo, mouse; conditions: for gross liver morphology / serum ALT levels versus normal (saline) control mice: day 8 after APAP 550 mg/kg, 20 mg/kg 10 h after
Protocol: Mice were euthanized at 24 hours and 192 hours (8 days). Serum ALT levels were analysed as described in Example 4. Livers were harvested, and fixed as described in Example 4, and digital photographs were taken.

[4] = tested on: primary human hepatocytes; test: APAP-challenged primary human hepatocytes with X209; type: cell-based; conditions: APAP 20 mM, X209 2 μg ml^-1, 24 h
From the text: PI^+ve cells were quantified with the flow cytometer (Fortessa, BD Biosciences) and analyzed with FlowJo version 7 software (TreeStar).

AILI [5] = test: X209, NAC or NAC+X209 3 h after APAP in mice
Protocol: (§1) Mice were administered anti-IL11Rα (X209) or IgG isotype control antibody at different times and doses, as described above or in the figure legends.
(§2) The levels of alanine transaminase (ALT) or aspartate aminotransferase (AST) in mouse serum and hepatocyte supernatant were measured using ALT Activity (ab105134, Abcam) or AST (ab105135, Abcam) Assay Kits. Liver glutathione sulfhydryl (GSH) measurements were performed using Glutathione Colorimetric Detection Kit (EIAGSHC, Thermo Fisher). All colorimetric assays were performed according to the manufacturer's protocol.
Western blots were carried out from hepatocyte and liver tissue lysates. Hepatocytes and tissues were homogenized in radioimmunoprecipitation assay (RIPA) buffer containing protease and phosphatase inhibitors (Thermo Fisher), followed by centrifugation to clear the lysate. Protein concentrations were determined by Bradford assay (Bio-Rad). Equal amounts of protein lysates were separated by SDS-PAGE, transferred to PVDF membrane, and subjected to immunoblot analysis for the indicated primary antibodies. Proteins were visualized using the ECL detection system (Pierce) with the appropriate secondary antibodies.

AILI [6] = test: X209 preventive dosing 16 h prior to APAP in mice (6.8)
Protocol: as §1, §2
Livers were fixed for 48 h at room temperature (RT) in 10% neutral-buffered formalin (NBF), dehydrated, embedded in paraffin blocks and sectioned at 7 μm. Sections were stained with H&E according to standard protocol and examined by light microscopy.

human hepatocytes [7] = test: APAP-mediated hepatocyte death, Annexin V/PI flow cytometry; conditions: APAP 20 mM, 24 hours; X209 2 μg/ml
Protocol: Cells were serum-starved for 16 hours prior to their used in experiments, by culture in serum-free hepatocyte medium.
Hepatocytes were then stained using the FITC Annexin V/Dead Cell Apoptosis Kit (V13242, Thermo Fisher) according to the manufacturer's instructions, and Annexin V-FITC/PI-stained cells were analysed by flow cytometry using a BD LSRFortessa flow cytometer (BD Bioscience). 10,000 cells were analyzed per sample. Data was analyzed using FlowJo version 7 software.

[8] = tested on: APAP-induced liver injury; test: Mouse model of APAP-induced liver injury, anti-IL-11Rα antibody 16 h prior to APAP (Example 2)
Protocol: Liver samples were excised and fixed for 48 hours at room temperature in 10% neutral-buffered formalin (NBF), dehydrated, embedded in paraffin blocks and sectioned at 7 μm. Sections were stained with Hematoxylin&Eosin (H&E) according to standard protocol and examined by light microscopy.

[9] = 20 mg/kg 10 h after APAP 400 mg/kg
[10] = 20 mg/kg IP 10 hours after APAP 400 mg/kg
[11] = listed as Antagonist antibody inhibitor of IL-11 mediated signalling
[12] = 10 mg/kg IP 16 hours prior to APAP 400 mg/kg

T1 sequence (Q9NPH5 whole entry): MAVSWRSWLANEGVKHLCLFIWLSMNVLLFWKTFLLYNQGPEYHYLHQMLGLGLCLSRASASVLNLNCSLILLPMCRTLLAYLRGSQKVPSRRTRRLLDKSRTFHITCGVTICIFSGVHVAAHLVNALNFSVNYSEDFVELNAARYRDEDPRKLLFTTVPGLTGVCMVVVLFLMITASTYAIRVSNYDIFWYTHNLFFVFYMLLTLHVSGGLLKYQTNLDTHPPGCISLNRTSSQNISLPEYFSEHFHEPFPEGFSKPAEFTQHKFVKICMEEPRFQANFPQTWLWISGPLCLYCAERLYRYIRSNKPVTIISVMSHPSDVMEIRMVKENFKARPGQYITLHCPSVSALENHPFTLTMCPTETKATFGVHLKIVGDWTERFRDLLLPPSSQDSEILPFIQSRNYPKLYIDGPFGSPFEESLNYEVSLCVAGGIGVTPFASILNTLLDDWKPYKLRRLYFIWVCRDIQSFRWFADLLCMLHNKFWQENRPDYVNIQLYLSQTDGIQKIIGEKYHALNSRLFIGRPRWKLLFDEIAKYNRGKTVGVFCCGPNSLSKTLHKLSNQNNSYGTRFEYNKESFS
T1 sequence (P13498 2-195 partner limits assumed): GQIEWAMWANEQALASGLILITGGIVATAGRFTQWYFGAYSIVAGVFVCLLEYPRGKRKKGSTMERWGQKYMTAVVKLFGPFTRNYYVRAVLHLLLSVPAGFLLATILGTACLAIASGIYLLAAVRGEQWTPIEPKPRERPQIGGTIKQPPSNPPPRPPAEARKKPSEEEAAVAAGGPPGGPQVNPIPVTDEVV

Molecule: CN(C)c1cccc(-c2c3c(=O)n(-c4ccccc4Cl)[nH]c3cc(=O)n2C)c1 [GKT-13781]
- IL11-stimulated GSH depletion, CASP3 activation and cell death (NOX4): prevented IL11-stimulated GSH depletion, CASP3 activation and cell death in a dose-dependent manner

B1: X209: antagonist (neutralizing) anti-IL11Rα antibody (Widjaja et al., Gastroenterology 2019; Aldevron) (antibody, V domains shown)
VH: QVQLQQPGAELVRPGSSVKLSCKASGYTFTNYWMHWLKQRPVQGLEWIGNIGPSDSKTHYNQKFKDKATLTVDKSSSTAYMQLNSLTSEDSAVYYCARGDYVLFTYWGQGTLVTVSA
VL: DIVLTQSPATLSLSPGERATLSCRASQSISNNLHWYQQKSHEAPRLLIKYASQSISGIPARFSGSGSGTDFTLSFSSLETEDFAVYFCQQSYSWPLTFGQGTKLEIK
- levels of p-ERK and pJNK (human hepatocytes [1]): substantially reduce the levels of p-ERK and pJNK
- hepatocyte necrosis, H&E [2]: substantially less hepatocyte necrosis
- serum ALT levels ([2]; 24 hours after APAP): substantial reduction in serum ALT levels
- EdU staining, nuclei with recent DNA synthesis [3, 9]: very large numbers of nuclei with evidence of recent DNA synthesis
- cleaved CASP3 in liver [3, 9]: reduction in cleaved CASP3 at 24 h
- liver damage (gross anatomy, histology, serum IL11, ALT and AST levels) [3, 9]: largely reversed liver damage by the second day after APAP
- liver regeneration markers (PCNA, Cyclin D1/D3/E1, p-RB) [3, 9]: strong upregulation of PCNA, Cyclin D1/D3/E1, and phosphorylation of RB
- gross liver morphology [3, 10]: restore gross liver morphology
- hepatic ERK and JNK activation (p-ERK, pJNK1, pJNK2), western blot [3, 10]: substantially reduced the levels of p-ERK, pJNK1 and pJNK2; also recorded: effectively blocked ERK and JNK activation
- serum ALT levels ([3]; 20 mg/kg IP 10 hours after APAP 400 mg/kg, 24, 36 and 48 hours): substantial reduction in serum ALT levels
- survival by the study end (lethal APAP overdose; 20 mg/kg 10 h after lethal APAP 550 mg/kg, 8 days): 90%
- survival relative to IgG-treated controls (lethal APAP overdose; 20 mg/kg IP 10 hours after APAP 550 mg/kg, monitored 8 days): significantly improved survival
- gross liver morphology (lethal APAP overdose): normal liver morphology
- serum ALT levels versus normal (saline) control mice (lethal APAP overdose): comparable to controls
- gross liver morphology (lethal APAP overdose; [11]): restore gross liver morphology
- serum ALT levels versus normal (saline) control mice (lethal APAP overdose; [11]): not significantly different
- APAP-induced NOX4 upregulation and depletion in hepatocyte GSH levels [4]: blocked
- CASP3 cleavage, cell death, ERK and JNK activation [4]: inhibited CASP3 cleavage and cell death, as well as ERK and JNK activation
- JNK and ERK activation (AILI [5]; 2.5-10 mg kg^-1 3 h after APAP): Reduced JNK and ERK activation
- markers of liver damage and hepatic GSH levels (AILI [5]; 2.5-10 mg kg^-1 3 h after APAP): dose-dependent improvements in markers of liver damage and in hepatic GSH levels
- ALT reduction (AILI [5]; 3 h after APAP, NAC 500 mg kg^-1, X209 5 mg kg^-1): 47%
- centrilobular necrosis, histology (AILI [6]; 10 mg kg^-1 16 h prior to APAP): limited histological evidence of centrilobular necrosis
- hepatic GSH levels (AILI [6]; 10 mg kg^-1 16 h prior to APAP): largely restored hepatic GSH levels
- reduction of serum markers of liver damage (AILI [6]; 10 mg kg^-1 16 h prior to APAP 400 mg kg^-1): over 70%
- proportion of dead hepatocytes (human hepatocytes [7]): substantially reduce the proportion of dead hepatocytes
- APAP-induced loss in liver mass (liver index) [8, 12]: prevent APAP-induced loss in liver mass
- centrilobular necrosis, H&E liver histology [8, 12]: reduced
- ALT levels lower compared to IgG control ([8]; 10 mg/kg IP 16 hours prior to APAP 400 mg/kg, 24 hours post-APAP): 55%
- mobility and activity of the mice ([8]; 24 hours post-APAP treatment): normal mobility and activity
